# Laboratory results published in article PMC9352680, “A comprehensive thermodynamic model for RNA binding by the Saccharomyces cerevisiae Pumilio protein PUF4”.
# T1: PUF4 RNA-binding domain (Saccharomyces cerevisiae, UniProt P25339 537-888)
# T1 sequence: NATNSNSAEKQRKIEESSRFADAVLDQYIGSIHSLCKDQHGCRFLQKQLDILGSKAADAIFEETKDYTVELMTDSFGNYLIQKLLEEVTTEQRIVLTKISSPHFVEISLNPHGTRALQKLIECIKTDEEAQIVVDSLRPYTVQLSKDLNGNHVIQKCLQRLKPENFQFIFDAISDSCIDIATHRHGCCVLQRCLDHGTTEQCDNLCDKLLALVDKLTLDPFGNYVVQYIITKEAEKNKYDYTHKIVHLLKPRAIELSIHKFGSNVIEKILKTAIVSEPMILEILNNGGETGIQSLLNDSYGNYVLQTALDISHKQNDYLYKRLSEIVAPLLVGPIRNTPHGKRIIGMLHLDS
# Target: T1, PUF4 RNA-binding domain
# Assay: Mg; RNA-MaP; 20 mM Na-HEPES pH 7.4, 30 mM KOAc, 0.75 mM MgCl2, 0.1% Tween-20, 5% glycerol, 0.1 mg/mL BSA, 2 mM DTT; 25 C; 0.0125-409.6 nM protein
# Conditions: tags: N-His6-TEV cleaved; C-SNAP kept, Cy3B-labelled; label: tethered on chip by stalled RNA polymerase
row,Binder,Kd
1,UCUCUUUGUAUUUCCUCUCUU (ssRNA) [Ic_S1_P4E.1_K4.1_C4.1_H4.1_A4.1_[A6T]_F4.1_[T8C]_[A9C]_T4.1],0.313 µM
2,UCUCUUUGUAUAAAUUCUCUU (ssRNA) [Ic_S1_P4E.1_K4.1_C4.1_H4.1_A4.1_[T7A]_F4.1_[T8A]_[A9T]_T4.1],0.0672 µM
3,UCUCUUUGUAUACACUCUCUU (ssRNA) [Ic_S1_P4E.1_K4.1_C4.1_H4.1_A4.1_[T7C]_F4.1_[T8A]_[A9C]_T4.1],0.119 µM
4,UCUCUUUGUACUGUCAUCUCUU (ssRNA) [Ic_S1_P5E.1_K5.1_C5.1_H5.1_A5.1_[T5C]_[A7G]_F5.1_[T9C]_T5.1],0.117 µM
5,UCUCUUUGUACGUCCCUCUCUU (ssRNA) [Ic_S1_P5E.1_K5.1_C5.1_H5.1_A5.1_[T5C]_[T6G]_[A7T]_F5.1_[T8C]_[T9C]_[A10C]_T5.1],0.394 µM
6,UCUCUUUGUAUUUGCUCUCUU (ssRNA) [Ic_S1_P4E.1_K4.1_C4.1_H4.1_A4.1_[A6T]_F4.1_[T8G]_[A9C]_T4.1],0.35 µM
7,UCUCUUUGUACCGACCUCUCUU (ssRNA) [Ic_S1_P5E.1_K5.1_C5.1_H5.1_A5.1_[T5C]_[T6C]_[A7G]_F5.1_[T8A]_[T9C]_[A10C]_T5.1],> 2.3 µM
8,UCUCUUUGUAUACCGUUCUCUU (ssRNA) [Ic_S1_P5E.1_K5.1_C5.1_H5.1_A5.1_[T6A]_[A7C]_F5.1_[T8C]_[T9G]_[A10T]_T5.1],0.334 µM
9,UCUCUUUGUAAAUGUCUCUU (ssRNA) [Ic_S1_P3E.1_K3.1_C3.1_H3.1_A3.1_[T5A]_F3.1_[A8G]_T3.1],0.0975 µM
10,UCUCUUUGUAAGUUCUUCUCUU (ssRNA) [Ic_S1_P5E.1_K5.1_C5.1_H5.1_A5.1_[T5A]_[T6G]_[A7T]_F5.1_[T9C]_[A10T]_T5.1],0.388 µM
11,UCUCUUUGUAAAUCUCUCUU (ssRNA) [Ic_S1_P3E.1_K3.1_C3.1_H3.1_A3.1_[T5A]_F3.1_[A8C]_T3.1],0.343 µM
12,UCUCUUUGUACUAAAAUCUCUU (ssRNA) [Ic_S1_P5E.1_K5.1_C5.1_H5.1_A5.1_[T5C]_F5.1_[T8A]_[T9A]_T5.1],0.0588 µM
13,UCUCUUUGUAUUUACUCUCUU (ssRNA) [Ic_S1_P4E.1_K4.1_C4.1_H4.1_A4.1_[A6T]_F4.1_[T8A]_[A9C]_T4.1],0.0749 µM
14,UCUCUUUGUAUAACUUCUCUU (ssRNA) [Ic_S1_P4E.1_K4.1_C4.1_H4.1_A4.1_[T7A]_F4.1_[T8C]_[A9T]_T4.1],0.0442 µM
15,UCUCUUUGUAUAAACUCUCUU (ssRNA) [Ic_S1_P4E.1_K4.1_C4.1_H4.1_A4.1_[T7A]_F4.1_[T8A]_[A9C]_T4.1],0.07 µM
16,UCUCUUUGUACUCUCGUCUCUU (ssRNA) [Ic_S1_P5E.1_K5.1_C5.1_H5.1_A5.1_[T5C]_[A7C]_F5.1_[T9C]_[A10G]_T5.1],0.0705 µM
17,UCUCUUUGUAUUAUCUCUCUU (ssRNA) [Ic_S1_P4E.1_K4.1_C4.1_H4.1_A4.1_[A6T]_[T7A]_F4.1_[A9C]_T4.1],0.0193 µM

row,Binder,Kd
1,UCUCUUUGUAUACAUUCUCUU (ssRNA) [Ic_S1_P4E.1_K4.1_C4.1_H4.1_A4.1_[T7C]_F4.1_[T8A]_[A9T]_T4.1],0.0485 µM
2,UCUCUUUGUAUUUAGUCUCUU (ssRNA) [Ic_S1_P4E.1_K4.1_C4.1_H4.1_A4.1_[A6T]_F4.1_[T8A]_[A9G]_T4.1],0.0253 µM
3,UCUCUUUGUACAUUUCUCUU (ssRNA) [Ic_S1_P3E.1_K3.1_C3.1_H3.1_A3.1_[T5C]_F3.1_[A8T]_T3.1],0.00542 µM
4,UCUCUUUGUACCAACCUCUCUU (ssRNA) [Ic_S1_P5E.1_K5.1_C5.1_H5.1_A5.1_[T5C]_[T6C]_F5.1_[T8A]_[T9C]_[A10C]_T5.1],0.556 µM
5,UCUCUUUGUAUUUGGUCUCUU (ssRNA) [Ic_S1_P4E.1_K4.1_C4.1_H4.1_A4.1_[A6T]_F4.1_[T8G]_[A9G]_T4.1],0.63 µM
6,UCUCUUUGUACAUCUCUCUU (ssRNA) [Ib_S1_P3E.1_K3.1_C3.1_H3.1_A3.1_[T5C]_F3.1_[A8C]_T3.1],0.0159 µM
7,UCUCUUUGUAACUCCAUCUCUU (ssRNA) [Ic_S1_P5E.1_K5.1_C5.1_H5.1_A5.1_[T5A]_[T6C]_[A7T]_F5.1_[T8C]_[T9C]_T5.1],0.616 µM
8,UCUCUUUGUAUACCCUCUCUU (ssRNA) [Ic_S1_P4E.1_K4.1_C4.1_H4.1_A4.1_[T7C]_F4.1_[T8C]_[A9C]_T4.1],0.0934 µM
9,UCUCUUUGUAUAUCGCUCUCUU (ssRNA) [Ic_S1_P5E.1_K5.1_C5.1_H5.1_A5.1_[T6A]_[A7T]_F5.1_[T8C]_[T9G]_[A10C]_T5.1],0.0274 µM
10,UCUCUUUGUACAGUCUUCUCUU (ssRNA) [Ic_S1_P5E.1_K5.1_C5.1_H5.1_A5.1_[T5C]_[T6A]_[A7G]_F5.1_[T9C]_[A10T]_T5.1],0.0229 µM
11,UCUCUUUGUACCUAACUCUCUU (ssRNA) [Ic_S1_P5E.1_K5.1_C5.1_H5.1_A5.1_[T5C]_[T6C]_[A7T]_F5.1_[T8A]_[T9A]_[A10C]_T5.1],0.0656 µM
12,UCUCUUUGUAUUACAUUCUCUU (ssRNA) [Ic_S1_P5E.1_K5.1_C5.1_H5.1_A5.1_F5.1_[T8C]_[T9A]_[A10T]_T5.1],0.121 µM
13,UCUCUUUGUAUAACGUCUCUU (ssRNA) [Ic_S1_P4E.1_K4.1_C4.1_H4.1_A4.1_[T7A]_F4.1_[T8C]_[A9G]_T4.1],0.0423 µM
14,UCUCUUUGUAGUUUCCUCUCUU (ssRNA) [Ic_S1_P5E.1_K5.1_C5.1_H5.1_A5.1_[T5G]_[A7T]_F5.1_[T9C]_[A10C]_T5.1],0.479 µM
15,UCUCUUUGUAAAUUUCUCUU (ssRNA) [Ic_S1_P3E.1_K3.1_C3.1_H3.1_A3.1_[T5A]_F3.1_[A8T]_T3.1],0.0169 µM
16,UCUCUUUGUAAUCCCAUCUCUU (ssRNA) [Ic_S1_P5E.1_K5.1_C5.1_H5.1_A5.1_[T5A]_[A7C]_F5.1_[T8C]_[T9C]_T5.1],0.868 µM
